Experimental data as given in patent publication EP3912994A1 (Université de Strasbourg, dated 2021).

Target: T1, fibronectin type III domains 1-5 of human tenascin-C (human, UniProt P24821 625-1075)
T1 construct: range 625-1075; Expressed in HEK293 cells, purified on Streptactin XT; coated on the ELISA plate; also called TN1-5
T1 sequence (looked up): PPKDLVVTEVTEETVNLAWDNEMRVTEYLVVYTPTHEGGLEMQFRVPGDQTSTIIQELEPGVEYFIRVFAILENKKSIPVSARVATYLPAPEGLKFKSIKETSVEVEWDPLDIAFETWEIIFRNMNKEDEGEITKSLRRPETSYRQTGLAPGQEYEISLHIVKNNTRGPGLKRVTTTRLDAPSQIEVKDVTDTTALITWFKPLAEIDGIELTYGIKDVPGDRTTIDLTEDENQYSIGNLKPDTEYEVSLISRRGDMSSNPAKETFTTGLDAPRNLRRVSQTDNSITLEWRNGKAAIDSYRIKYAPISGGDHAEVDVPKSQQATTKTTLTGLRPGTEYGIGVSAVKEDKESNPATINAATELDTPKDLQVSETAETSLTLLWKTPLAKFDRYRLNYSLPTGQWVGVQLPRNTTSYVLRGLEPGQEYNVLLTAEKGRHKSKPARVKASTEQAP
Assay: ELISA, TN1-5 coated, biotinylated FN4-6 titrated 1 nM to 1 µM

B1: fibronectin type III domains 4-6 of human fibronectin (double Strep-tagged) (other, UniProt P02751 909-1175, looked up, not shown: small tags and cut ends)
chain: SPRDLQFVEVTDVKVTIMWTPPESAVTGYRVDVIPVNLPGEHGQRLPISRNTFAEVTGLSPGVTYYFKVFAVSHGRESKPLTAQQTTKLDAPTNLQFVNETDSTVLVRWTPPRAQITGYRLTVGLTRRGQPRQYNVGPSVSKYPLRNLQPASEYTVSLVAIKGNQESPKATGVFTTLQPGSSIPPYNTEVTETTIVITWTPAPRIGFKLGVRPSQGGEAPREVTSDSGSIVVSGLTPGVEYVYTIQVLRDGQERDAPIVNKVVTPLS
notes: range 909-1175; Biotinylated with Biotin-Ahx-NHS for the ELISA on TN1-5; also called FN4-6
  Kd: 44 nM
